Assay results reported in paper PMC5816542, “In vitro and in vivo characterization of three Cellvibrio japonicus glycoside hydrolase family 5 members reveals potent xyloglucan backbone-cleaving functions” (Biotechnology for Biofuels, 2018).

How the values were obtained:
CjGH5D = target: T1, CjGH5D (Cellvibrio japonicus, UniProt B3PD52); experiment: time-dependent inactivation, residual XXXG-CNP hydrolysis at […] nm; format: biochemical; conditions: covalent; irreversible active-site affinity label; 20 mM phosphate pH 7.5, 40 °C, 0.1 mg/mL BSA; XXXG-CNP substrate
T1 construct: gene cel5D; GH5_4 catalytic module, lipoprotein signal peptide and serine-rich linker removed; N-terminal His6 (pET28a), E. coli; borders 96-468 are those of the crystal model

purified protein [1] = substrate: O=[N+]([O-])c1ccc(O[C@@H]2O[C@H](CO)[C@@H](O[C@@H]3O[C@H](CO[C@H]4OC[C@@H](O)[C@H](O)[C@H]4O)[C@@H](O[C@@H]4O[C@H](CO[C@H]5OC[C@@H](O)[C@H](O)[C@H]5O)[C@@H](O[C@@H]5O[C@H](CO[C@H]6OC[C@@H](O)[C@H](O)[C@H]6O)[C@@H](O)[C@H](O)[C@H]5O)[C@H](O)[C@H]4O)[C@H](O)[C@H]3O)[C@H](O)[C@H]2O)c(Cl)c1; experiment: purified protein; format: biochemical, Cellvibrio japonicus
purified protein [2] = substrate: O=[N+]([O-])c1ccc(O[C@@H]2O[C@H](CO)[C@@H](O[C@@H]3O[C@H](CO[C@H]4OC[C@@H](O)[C@H](O)[C@H]4O[C@@H]4O[C@H](CO)[C@H](O)[C@H](O)[C@H]4O)[C@@H](O[C@@H]4O[C@H](CO[C@H]5OC[C@@H](O)[C@H](O)[C@H]5O[C@@H]5O[C@H](CO)[C@H](O)[C@H](O)[C@H]5O)[C@@H](O[C@@H]5O[C@H](CO[C@H]6OC[C@@H](O)[C@H](O)[C@H]6O)[C@@H](O)[C@H](O)[C@H]5O)[C@H](O)[C@H]4O)[C@H](O)[C@H]3O)[C@H](O)[C@H]2O)c(Cl)c1; experiment: purified protein; format: biochemical, Cellvibrio japonicus
purified protein [3] = substrate: O=[N+]([O-])c1ccc(O[C@@H]2O[C@H](CO)[C@@H](O[C@@H]3O[C@H](CO)[C@@H](O[C@@H]4O[C@H](CO)[C@@H](O)[C@H](O)[C@H]4O)[C@H](O)[C@H]3O)[C@H](O)[C@H]2O)c(Cl)c1; experiment: purified protein; format: biochemical, Cellvibrio japonicus; conditions: 50 mM phosphate pH 7.5, 55 °C
purified protein [4] = substrate: O=[N+]([O-])c1ccc(O[C@@H]2O[C@H](CO)[C@@H](O[C@@H]3O[C@H](CO)[C@@H](O[C@@H]4O[C@H](CO)[C@@H](O[C@@H]5O[C@H](CO)[C@@H](O)[C@H](O)[C@H]5O)[C@H](O)[C@H]4O)[C@H](O)[C@H]3O)[C@H](O)[C@H]2O)c(Cl)c1; experiment: purified protein; format: biochemical, Cellvibrio japonicus; conditions: 50 mM phosphate pH 7.5, 55 °C

**Q.** For `O=C(CBr)N[C@@H]1O[C@H](CO)[C@@H](O[C@@H]2O[C@H](CO[C@H]3OC[C@@H](O)[C@H](O)[C@H]3O)[C@@H](O[C@@H]3O[C@H](CO[C@H]4OC[C@@H](O)[C@H](O)[C@H]4O)[C@@H](O[C@@H]4O[C@H](CO[C@H]5OC[C@@H](O)[C@H](O)[C@H]5O)[C@@H](O)[C@H](O)[C@H]4O)[C@H](O)[C@H]3O)[C@H](O)[C@H]2O)[C@H](O)[C@H]1O` [XXXG-NHCOCH2Br], which KI (inactivation) (CjGH5D) is on record?
**A.** Its KI (inactivation) is 1.78 ± 0.17 mM.

B1: CjGH5F (Cellvibrio japonicus Ueda107) (protein)
chain: FSVTVGGSSSGTMRNLTSVQLARLMGAGWNLGNSLEAIGSETAWGNPATTQALINAVKAAGFKTIRIPVSWSQYADANYNISSSWMARVKQVVDYAKNAGFYVIINIHWDGGWMQPTYANQAAVNSRLTKLWTQIANNFKNYDDYLLFAGTNEVMVDGDYGTPTYEYYTVQNSFNQTFVNTVRATGGNNAVRHLVVQGFNTNIDHTISFVSIPSDSASNRLMMEVHYYDPYNFTLNASSNIWQWGANATNSSATETWANETYVNTQFQRMKTRFIDNGVAVILGEFGAISRTNIPGAESYRTYWNQYITRAAYTRGLVPIYWDNGYTANNGMGLFDRYNGAQVYPNLISTIINAAQ
notes: C-terminal GH5_4 catalytic module, signal peptide and FN3 domain removed; N-terminal His6 (pET28a), E. coli
**Q.** How did the Km (purified protein [1]; 50 mM phosphate pH 7.0, 50 °C) turn out when B1 was run?
**A.** Its Km is 70 ± 10 µM.

**Q.** What about the kcat (purified protein [1]; 50 mM phosphate pH 7.0, 50 °C) of the same molecule?
**A.** The kcat was 2.82 ± 0.0667 s⁻¹.

**Q.** And the kcat/Km (purified protein [1]; 50 mM phosphate pH 7.0, 50 °C)?
**A.** The kcat/Km was 40200 ± 5830 M⁻¹ s⁻¹.

**Q.** What about the Km (purified protein [2]; 50 mM phosphate pH 7.0, 50 °C) of the same molecule?
**A.** The Km was 30 ± 2 µM.

**Q.** What about the kcat (purified protein [2]; 50 mM phosphate pH 7.0, 50 °C) of the same molecule?
**A.** Its kcat is 6.55 ± 0.133 s⁻¹.

**Q.** What about the kcat/Km (purified protein [2]; 50 mM phosphate pH 7.0, 50 °C) of the same molecule?
**A.** Its kcat/Km is 218000 ± 15000 M⁻¹ s⁻¹.

B2: CjGH5E (Cellvibrio japonicus Ueda107) (protein)
chain: SSSGSSLTSVELTRLMGVGWNVGNTLDAIGGETNWGNPLITQQLISSVKAAGFKTLRVPVAWSKFTNAATFTIDPAWLNRVEQVVNYALNEDMYVMINIHWDGGWMQPTYAQQAYVNNRLSIMWTQIANHFRNYGDKLLFAGTNEVMVEGDYGTPTVEYYTVQNSFNQTFVDTVRATGGNNANRFLVVQGFNTNIDHTVNFARIPTDSASNRLLMEVHYYDPYNFTLNTSSNITQWGAIATNPAVTETWANEAYADAQFEKMRTNFINRGVGVILGEYGVVSRLNVSGHETFRVYYNQYITKSAYQRGLVPVYWDNGYSGDGGFALFDRNSGNQLYPDIIRAIVNATF
notes: GH5_4 catalytic module, signal peptide and CBM2-CBM10 removed; N-terminal His6 (pMCSG53), E. coli
**Q.** How did the Km (purified protein [3]) turn out when B2 was run?
**A.** Its Km is 11800 ± 600 µM.

**Q.** What about the kcat (purified protein [3]) of the same molecule?
**A.** Its kcat is 3.18 ± 0.117 s⁻¹.

**Q.** What about the kcat/Km (purified protein [3]) of the same molecule?
**A.** Its kcat/Km is 270 ± 16.7 M⁻¹ s⁻¹.

**Q.** And the Km (purified protein [4])?
**A.** The Km was 5020 ± 350 µM.

**Q.** And the kcat (purified protein [4])?
**A.** The kcat was 3 ± 0.117 s⁻¹.

**Q.** And the kcat/Km (purified protein [4])?
**A.** The kcat/Km was 598 ± 46.7 M⁻¹ s⁻¹.

**Q.** What about the Km (purified protein [1]; 50 mM phosphate pH 7.5, 55 °C) of the same molecule?
**A.** Its Km is 10 ± 1 µM.

**Q.** And the kcat (purified protein [1]; 50 mM phosphate pH 7.5, 55 °C)?
**A.** The kcat was 4.23 ± 0.0667 s⁻¹.

**Q.** And the kcat/Km (purified protein [1]; 50 mM phosphate pH 7.5, 55 °C)?
**A.** Its kcat/Km is 423000 ± 43300 M⁻¹ s⁻¹.

**Q.** What about the Km (purified protein [2]; 50 mM phosphate pH 7.5, 55 °C) of the same molecule?
**A.** The Km was 10 ± 1 µM.

**Q.** And the kcat (purified protein [2]; 50 mM phosphate pH 7.5, 55 °C)?
**A.** The kcat was 5.53 ± 0.15 s⁻¹.

**Q.** What about the kcat/Km (purified protein [2]; 50 mM phosphate pH 7.5, 55 °C) of the same molecule?
**A.** Its kcat/Km is 553000 ± 56700 M⁻¹ s⁻¹.

B3: CjGH5D (Cellvibrio japonicus Ueda107) (protein)
chain: GLYPSYNTSPAAPDSTGMQSTAVQLAGKIRLGWNIGNTMEAIGGETAWGNPMVSNELLKLVKDSGFDAVRIPVAWDQYANQESAEISAAWLNRVKQVVQMAIDNELYVLINIHWDGGWLENNITPAKKDENNAKQKAFWEQIATHLRDFDEHLLFAGTNEPNAENAEQMDVLNSYLQTFVDAVRSTGGKNAYRVLVLQGPVTDIEKTNELWTHMPADTATDRLMAEVHFYTPYNFALMRQDESWGKQFYYWGEGFLSTTDTERNPTWGEEATIDQLFDLMKTKFVDQGIPVVLGEFSAMRRTNLTGDALTLHLAGRAYYHKYVTQQALARGLLPFYWDNGGNDNFSSGIFNRQQNTVFDQQVLDALLEGAGAQ
notes: GH5_4 catalytic module, lipoprotein signal peptide and serine-rich linker removed; N-terminal His6 (pET28a), E. coli; borders 96-468 are those of the crystal model
**Q.** With B3 as the molecule, how does the Km (purified protein [1]; 50 mM phosphate pH 7.5, 50 °C) read?
**A.** The Km was 810 ± 100 µM.

**Q.** And the kcat (purified protein [1]; 50 mM phosphate pH 7.5, 50 °C)?
**A.** The kcat was 4.68 ± 0.2 s⁻¹.

**Q.** And the kcat/Km (purified protein [1]; 50 mM phosphate pH 7.5, 50 °C)?
**A.** Its kcat/Km is 5780 ± 750 M⁻¹ s⁻¹.

**Q.** What about the Km (purified protein [2]; 50 mM phosphate pH 7.5, 50 °C) of the same molecule?
**A.** Its Km is 180 ± 20 µM.

**Q.** And the kcat (purified protein [2]; 50 mM phosphate pH 7.5, 50 °C)?
**A.** Its kcat is 2.7 ± 0.0667 s⁻¹.

**Q.** What about the kcat/Km (purified protein [2]; 50 mM phosphate pH 7.5, 50 °C) of the same molecule?
**A.** Its kcat/Km is 15000 ± 1720 M⁻¹ s⁻¹.
